For nine compounds, Km, kcat and kcat/Km results are on record in PMC6882493 (Emerging Microbes & Infections, 2019).

In series [1] the test system is PNGM-1.
Target sequence in this assay (Z9H0G7B495 1-372 H256A limits assumed): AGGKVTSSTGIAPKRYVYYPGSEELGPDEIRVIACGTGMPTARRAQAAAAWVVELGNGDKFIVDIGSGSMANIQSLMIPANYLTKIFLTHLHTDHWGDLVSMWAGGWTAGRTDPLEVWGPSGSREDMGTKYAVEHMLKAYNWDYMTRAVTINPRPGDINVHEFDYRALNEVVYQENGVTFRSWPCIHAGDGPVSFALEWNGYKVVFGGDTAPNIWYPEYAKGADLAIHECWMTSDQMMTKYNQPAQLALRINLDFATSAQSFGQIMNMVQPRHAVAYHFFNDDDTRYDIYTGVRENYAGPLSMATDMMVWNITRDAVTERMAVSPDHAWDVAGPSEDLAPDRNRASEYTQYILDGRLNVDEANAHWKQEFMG
In series [2] the test system is PNGM-1. The settings on record: read-out: PNGM-1^a; 50 mM MES pH 7.0, 30 °C, 100 μM ZnCl2, 100 μg/ml BSA; footnote: identical to data from authors' earlier reference 13; cited from earlier work.
Target sequence in this assay (Z9H0G7B495 1-372 limits assumed): as the sequence (Z9H0G7B495 1-372 H256A limits assumed) above, with A256H counted along it
For series [3], the system named is PNGM-1. The settings on record: read-out: PNGM-1^a; 50 mM MES pH 7.0, 30 °C, 100 μM ZnCl2, 100 μg/ml BSA; footnote: identical to data from authors' earlier reference 13; cited from earlier work. The source holds these as a separate data set.
Target sequence in this assay (Z9H0G7B495 1-372 limits assumed): as the sequence (Z9H0G7B495 1-372 H256A limits assumed) above, with A256H counted along it
For series [4], the system named is PNGM-1. This is another data set of the same source.
Target sequence in this assay (Z9H0G7B495 1-372 H256A limits assumed): as the sequence (Z9H0G7B495 1-372 H256A limits assumed) above
Series [5] deals with PNGM-1. The settings on record: read-out: PNGM-1^a; 50 mM MES pH 7.0, 30 °C, 100 μM ZnCl2, 100 μg/ml BSA; footnote: identical to data from authors' earlier reference 13; cited from earlier work. The source holds these as a separate data set.
Target sequence in this assay (Z9H0G7B495 1-372 limits assumed): as the sequence (Z9H0G7B495 1-372 H256A limits assumed) above, with A256H counted along it
In series [6] the test system is PNGM-1. The source holds these as a separate data set.
Target sequence in this assay (Z9H0G7B495 1-372 H256A limits assumed): as the sequence (Z9H0G7B495 1-372 H256A limits assumed) above
The subject of series [7] is PNGM-1. The settings on record: read-out: PNGM-1^a; 50 mM MES pH 7.0, 30 °C, 100 μM ZnCl2, 100 μg/ml BSA; footnote: identical to data from authors' earlier reference 13; cited from earlier work. This is another data set of the same source.
Target sequence in this assay (Z9H0G7B495 1-372 limits assumed): as the sequence (Z9H0G7B495 1-372 H256A limits assumed) above, with A256H counted along it
Series [8] has as its system PNGM-1. The settings on record: read-out: PNGM-1^a; 50 mM MES pH 7.0, 30 °C, 100 μM ZnCl2, 100 μg/ml BSA; footnote: identical to data from authors' earlier reference 13; cited from earlier work. The source holds these as a separate data set.
Target sequence in this assay (Z9H0G7B495 1-372 limits assumed): as the sequence (Z9H0G7B495 1-372 H256A limits assumed) above, with A256H counted along it
Series [9] deals with PNGM-1. The settings on record: read-out: PNGM-1^a; 50 mM MES pH 7.0, 30 °C, 100 μM ZnCl2, 100 μg/ml BSA; footnote: identical to data from authors' earlier reference 13; cited from earlier work. The source holds these as a separate data set.
Target sequence in this assay (Z9H0G7B495 1-372 limits assumed): as the sequence (Z9H0G7B495 1-372 H256A limits assumed) above, with A256H counted along it
The test system of series [10] is C[C@@H](O)[C@H]1C(=O)N2C(C(=O)O)=C(S[C@@H]3CN[C@H](C(=O)Nc4cccc(C(=O)O)c4)C3)[C@H](C)[C@H]12. Description: purified protein. The settings on record: 50 mM MES pH 7.0, 30 °C, 100 μM ZnCl2, 100 μg/ml BSA.
In series [11] the test system is C[C@@H](O)[C@H]1C(=O)N2C(C(=O)O)=C(SCCN=CN)C[C@H]12. Description: purified protein. The settings on record: 50 mM MES pH 7.0, 30 °C, 100 μM ZnCl2, 100 μg/ml BSA.
The test system of series [12] is C[C@@H](O)[C@H]1C(=O)N2C(C(=O)O)=C(S[C@@H]3CN[C@H](C(=O)N(C)C)C3)[C@H](C)[C@H]12. Description: purified protein. The settings on record: 50 mM MES pH 7.0, 30 °C, 100 μM ZnCl2, 100 μg/ml BSA.

Where two headings read alike, the source gives them in different places.

As to `CO/N=C(\C(=O)N[C@@H]1C(=O)N2C(C(=O)O)=C(COC(C)=O)CS[C@H]12)c1csc(N)n1` [cefotaxime], the Km in series [1] was 3.1 ± 0.1 µM; in series [2], 3.3 ± 0.1 µM.

Take `CO[C@@]1(NC(=O)Cc2cccs2)C(=O)N2C(C(=O)O)=C(COC(N)=O)CS[C@@H]21` [cefoxitin]: the values for the Km in series [3] and in series [4] were 4.3 ± 0.1 µM and 3.8 ± 0.1 µM, respectively.

For the compound `CC(C)(O/N=C(\C(=O)N[C@@H]1C(=O)N2C(C(=O)[O-])=C(C[n+]3ccccc3)CS[C@H]12)c1csc(N)n1)C(=O)O` [ceftazidime], the Km in [5] is 15.9 ± 0.2 µM; in [6], 15.4 ± 0.1 µM.

Consider `C[C@@H](O)[C@H]1C(=O)N2C(C(=O)O)=C(S[C@@H]3CN[C@H](C(=O)Nc4cccc(C(=O)O)c4)C3)[C@H](C)[C@H]12` [ertapenem], for which the Km in series [7] is 1.9 ± 0.1 µM.

For the compound `C[C@@H](O)[C@H]1C(=O)N2C(C(=O)O)=C(SCCN=CN)C[C@H]12` [imipenem], the Km in series [8] is 2 ± 0.1 µM.

Turning to `C[C@@H](O)[C@H]1C(=O)N2C(C(=O)O)=C(S[C@@H]3CN[C@H](C(=O)N(C)C)C3)[C@H](C)[C@H]12` [meropenem], the Km in series [9] is 1.9 ± 0.1 µM.

With AIM-1 (Pseudomonas aeruginosa), in series [10], the Km was determined as 5.0 ± 0.1 µM; the kcat (commonly the number of substrate molecules converted per active site and unit of time at saturation) stood at 12.376 ± 0.0001 s⁻¹; the kcat/Km – broadly, the second-order rate constant that governs catalysis at low substrate concentration – came out at 2.5e+06 ± 200000 M⁻¹ s⁻¹. For the same compound, in series [11], the Km turned out to be 3.8 ± 0.1 µM, the catalytic constant (kcat) is 11.128 ± 0.0001 s⁻¹ and the kcat/Km amounted to 2.9e+06 ± 200000 M⁻¹ s⁻¹. In series [12], the Km turned out to be 4.6 ± 0.1 µM and the kcat is 15.409 ± 0.0001 s⁻¹.

As for FEZ-1 (Fluoribacter gormanii), the Km was found to be 4.6 ± 0.1 µM in series [10], 3.5 ± 0.1 µM in series [11] and 4.2 ± 0.1 µM in series [12]. Further, the kcat in series [10] worked out at 0.667 ± 0.001 s⁻¹; in series [11], 0.763 ± 0.001 s⁻¹; in [12], 0.773 ± 0.001 s⁻¹. The kcat/Km was 220000 ± 10000 M⁻¹ s⁻¹ in series [11] and 180000 ± 10000 M⁻¹ s⁻¹ in series [12].

As for GOB-18 (Elizabethkingia meningoseptica), the Km was 6.3 ± 0.1 µM in series [10], 4.8 ± 0.1 µM in series [11] and 5.7 ± 0.1 µM in series [12]. In addition, the kcat in series [10] is 6.882 ± 0.002 s⁻¹; in series [11], 6.188 ± 0.003 s⁻¹; in [12], 8.568 ± 0.001 s⁻¹. Further, the specificity constant (kcat/Km) in series [10] came out at 1.1e+06 ± 200000 M⁻¹ s⁻¹; in series [11] it was 1.3e+06 ± 200000 M⁻¹ s⁻¹; in series [12], 1.5e+06 ± 100000 M⁻¹ s⁻¹.
